Measurements as given in patent US20140113288.

B1: HtrA4-FLAG (protein)
chain: EKLHTQPSCPAVCQPTRCPALPTCALGTTPVFDLCRCCRVCPAAEREVCGGAQGQPCAPGLQCLQPLRPGFPSTCGCPTLGGAVCGSDRRTYPSMCALRAENRAARRLGKVPAVPVQWGNCGDTGTRSAGPLRRNYNFIAAVVEKVAPSVVHVQLWGRLLHGSRLVPVYSGSGFIVSEDGLIITNAHVVRNQQWIEVVLQNGARYEAVVKDIDLKLDLAVIKIESNAELPVLMLGRSSDLRAGEFVVALGSPFSLQNTATAGIVSTKQRGGKELGMKDSDMDYVQIDATINYGNSGGPLVNLDGDVIGVNSLRVTDGISFAIPSDRVRQFLAEYHEHQMKGKAFSNKKYLGLQMLSLTVPLSEELKMHYPDFPDVSSGVYVCKVVEGTAAQSSGLRDHDVIVNINGKPITTTTDVVKALDSDSLSMAVLRGKDNLLLTVIPETIN
B2: HtrA4mt-FLAG (protein)
chain: EKLHTQPSCPAVCQPTRCPALPTCALGTTPVFDLCRCCRVCPAAEREVCGGAQGQPCAPGLQCLQPLRPGFPSTCGCPTLGGAVCGSDRRTYPSMCALRAENRAARRLGKVPAVPVQWGNCGDTGTRSAGPLRRNYNFIAAVVEKVAPSVVHVQLWGRLLHGSRLVPVYSGSGFIVSEDGLIITNAHVVRNQQWIEVVLQNGARYEAVVKDIDLKLDLAVIKIESNAELPVLMLGRSSDLRAGEFVVALGSPFSLQNTATAGIVSTKQRGGKELGMKDSDMDYVQIDATINYGNAGGPLVNLDGDVIGVNSLRVTDGISFAIPSDRVRQFLAEYHEHQMKGKAFSNKKYLGLQMLSLTVPLSEELKMHYPDFPDVSSGVYVCKVVEGTAAQSSGLRDHDVIVNINGKPITTTTDVVKALDSDSLSMAVLRGKDNLLLTVIPETIN

Chain of syncytin-1-HA, Q9UQF0 (Q9UQF0 21-538): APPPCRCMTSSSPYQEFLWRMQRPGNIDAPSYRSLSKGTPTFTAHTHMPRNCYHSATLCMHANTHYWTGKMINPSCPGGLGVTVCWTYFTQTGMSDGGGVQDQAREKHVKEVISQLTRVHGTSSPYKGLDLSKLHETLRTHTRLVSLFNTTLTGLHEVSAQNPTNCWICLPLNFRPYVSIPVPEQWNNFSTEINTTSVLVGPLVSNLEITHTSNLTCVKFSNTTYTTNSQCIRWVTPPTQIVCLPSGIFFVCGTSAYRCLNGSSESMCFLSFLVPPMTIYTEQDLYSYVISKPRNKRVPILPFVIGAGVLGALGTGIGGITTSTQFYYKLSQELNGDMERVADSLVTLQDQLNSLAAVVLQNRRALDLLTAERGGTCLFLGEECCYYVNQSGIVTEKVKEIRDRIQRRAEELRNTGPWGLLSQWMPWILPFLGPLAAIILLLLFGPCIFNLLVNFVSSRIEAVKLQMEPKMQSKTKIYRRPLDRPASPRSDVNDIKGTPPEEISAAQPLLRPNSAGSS

| Protein | cleavage of fibronectin (immunoblotting with anti-fibronectin Ab) (fibronectin) | protein level of surface syncytin-1-HA TM subunit (biotinylation, streptavidin pull-down, HA mAb) (syncytin-1-HA, Q9UQF0) |
| --- | --- | --- |
| B1 | cleavage of fibronectin by HtrA4-FLAG, but not HtrA4mt-FLAG, was observed in a dose-dependent manner | the protein level of the TM subunit of syncytin-1-HA decreased in the presence of HtrA4-FLAG, but not HtrA4mt-FLAG |
| B2 | cleavage of fibronectin by HtrA4-FLAG, but not HtrA4mt-FLAG, was observed in a dose-dependent manner | the protein level of the TM subunit of syncytin-1-HA decreased in the presence of HtrA4-FLAG, but not HtrA4mt-FLAG |
